Measurements published in publication PMC8981990.

Target: PKM2 (pyruvate kinase M2 isoform) (human (endogenous in U87)) (UniProt P14618)
Assay: cross-linking; cell lysates (100 ug) of U87, T98G or LN319 cells 10 h after release, glutaraldehyde 0.125%, 5 min, 37 C, Western blot for PKM2; vehicle or DASA-58 (40 uM, 3 h)

Sequence of PKM2 (pyruvate kinase M2 isoform), P14618 1-531 (natural protein; other documents disagree on this pair) (P14618 whole entry, canonical isoform): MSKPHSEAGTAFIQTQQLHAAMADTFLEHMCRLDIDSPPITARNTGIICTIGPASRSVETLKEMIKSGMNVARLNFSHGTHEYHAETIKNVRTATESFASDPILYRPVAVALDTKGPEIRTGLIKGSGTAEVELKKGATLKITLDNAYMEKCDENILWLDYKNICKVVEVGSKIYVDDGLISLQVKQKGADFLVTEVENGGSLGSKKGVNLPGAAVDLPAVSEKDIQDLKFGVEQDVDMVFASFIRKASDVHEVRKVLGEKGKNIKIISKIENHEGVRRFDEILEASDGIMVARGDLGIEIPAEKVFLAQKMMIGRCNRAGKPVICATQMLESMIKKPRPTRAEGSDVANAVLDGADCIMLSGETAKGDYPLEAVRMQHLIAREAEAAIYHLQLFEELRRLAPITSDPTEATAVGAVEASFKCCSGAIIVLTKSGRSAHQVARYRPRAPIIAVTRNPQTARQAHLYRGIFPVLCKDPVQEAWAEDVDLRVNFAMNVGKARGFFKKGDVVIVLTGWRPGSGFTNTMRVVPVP

Substance: PKM2 (pyruvate kinase M2 isoform), P14618 1-531 (natural protein; other documents disagree on this pair)
- stoichiometry N: 2
